Measurements taken from patent publication US10253082B2, “Long-acting insulin and use thereof” (HANMI PHARM. CO., LTD., priority 2014, dated 2019).

Target: Insulin receptors (Homo sapiens, UniProt P06213)
Assay: Insulin receptor binding affinity by surface plasmon resonance (BIACORE 3000)
Conditions: for ka / kd: SPR, immobilized insulin receptor, 1:1 Langmuir binding with baseline drift, Test 1-5 runs; for receptor binding affinity (KD) compared to human insulin: native human insulin of the same test = 100%
Procedure: Then, the insulin receptor binding affinity of each substance was examined. The binding affinity of each substance was calculated using BIAevaluation software. At this time, the model used was 1:1 Langmuir binding with baseline drift.

Row | Substance | ka | kd | receptor binding affinity (KD) compared to human insulin
1 | Insulin analog (No. 6): insulin analog, modified sequence B^24F->A; protein SEQ ID NO: 30 | 0.28 1/Ms, ×10^5 | 6.60 1/s, ×10^−3 | (14.8%)
2 | Insulin analog (No. 7): insulin analog, modified sequence B^25F->A; protein SEQ ID NO: 32 | 0.14 1/Ms, ×10^5 | 8.34 1/s, ×10^−3 | (9.9%)
3 | Insulin analog (No. 8): insulin analog, modified sequence A^14Y->E; protein SEQ ID NO: 34 | 1.78 1/Ms, ×10^5 | 12.9 1/s, ×10^−3 | (57.1%)
4 | Insulin analog (No. 9): insulin analog, modified sequence A^14Y->N; protein SEQ ID NO: 36 | 1.85 1/Ms, ×10^5 | 11.9 1/s, ×10^−3 | (78.8%)
